A word on the Kd: it is the free concentration of one partner at which half of the binding sites on the other are occupied at equilibrium, for simple one-to-one binding.

Where a SMILES comes first, the peptide text is derived from it. Bridges are numbered along the chain shown (N, C = ends). Roman numbers before positions name the chains, in order. Where no end group is shown, it is not given here. The star is where a group is joined. Cam = NC(=O)C*

Data set [1] can be described thus: Thermal unfolding followed by CD spectroscopy. It counts as physicochemical. Particulars: for TM of the oxidised state: oxidised form; for TM of the oxidised state / TM of the reduced, dimeric form: ±2 for all three values; for thermal stability in words: comparator named in the value; for thermal destabilisation compared with CSP-3o: oxidised forms; for midpoint of thermal unfolding transition, TM: FIG. 3B, concentration not given. On the procedure: (§1) Circular dichroism spectroscopy. CD measurements were made using a JASCO J-715 spectropolarimeter fitted with a Peltier temperature controller. Peptide solutions were prepared in 25 mM potassium phosphate buffer at pH 7 and were examined in 1 mm or 1 cm quartz cuvettes (with stirring). Spectra were recorded at 5° C. using 1 nm intervals, a 1 nm bandwidth and 4 sec response time. Thermal unfolding curves were recorded through 1° C. min^−1 ramps using a 2 nm bandwidth, averaging the signal for 16 s every 1° C. intervals. After baseline correction, ellipticities in mdeg were converted to molar ellipticities (deg cm^2 dmol-res-^−1) by normalising for the concentration of peptide bonds.

The nature of data set [2]: Circular dichroism spectroscopy (helicity). Particulars: for helix content judged by CD spectroscopy: pH 7, 5° C., 100 μM peptide (b86 prints 100 mM); for helicity compared with other designs (CD signal at 222 nm): pH 7, comparator named in the value. It counts as physicochemical. The protocol: as §1
Background: CD spectra are sensitive to the conformation of chiral molecules.

Data set [3] concerns the molecule itself. Nature of the data set: sedimentation equilibrium AUC, monomer-dimer fit, pH 7, 5 C (homodimerisation). The protocol: Sedimentation equilibrium experiments were conducted at 5° C. in a Beckman-Optima XL-I analytical ultracentrifuge fitted with an An-60 Ti rotor. A […] peptide solution at […] in 25 mM K phosphate buffer pH 7 containing 0.1 M KCl was equilibrated for 48 h at speeds of 40 000, 47 500/50 000 and 55 000/60 000 rpm. Data were fitted simultaneously assuming either a single ideal species or a monomer-dimer equilibrium and fixed monomer molecular weight, using routines in the Beckman-Optima XL-A/XLI-I data analysis software (v4.0). The molecular weights (Table 2) and partial specific volumes (range 0.7417 to 0.7461) of the peptides were calculated from their amino-acid sequences, and the viscosity of the buffer at 5° C. was taken to be […].

As to `CC[C@H](C)[C@H](NC(=O)[C@H](CCCCN)NC(=O)[C@H](CCC(N)=O)NC(=O)[C@H](CCC(=O)O)NC(=O)[C@H](CC(C)C)NC(=O)[C@H](C)NC(=O)[C@H](CCCNC(=N)N)NC(=O)[C@@H](NC(=O)[C@H](CCCCN)NC(=O)[C@H](C)NC(=O)[C@H](CCC(N)=O)NC(=O)[C@H](CCCCN)NC(=O)[C@H](C)NC(=O)[C@H](CCC(N)=O)NC(=O)[C@H](CCCCN)NC(=O)[C@H](CC(C)C)NC(=O)[C@H](CCCNC(=N)N)NC(=O)[C@H](C)NC(=O)[C@@H](NC(=O)[C@H](CCC(=O)O)NC(=O)[C@H](Cc1ccc(O)cc1)NC(=O)[C@H](CCCCN)NC(=O)[C@H](CC(C)C)NC(=O)[C@H](C)NC(=O)[C@H](CCCNC(=N)N)NC(=O)[C@@H](NC(=O)[C@H](CCC(=O)O)NC(=O)CNC(=O)CNC(=O)[C@@H](N)CS)[C@@H](C)CC)[C@@H](C)CC)[C@@H](C)CC)C(=O)N[C@@H](C)C(=O)N[C@@H](C)C(=O)N[C@@H](CC(C)C)C(=O)N[C@@H](CCC(=O)O)C(=O)NCC(=O)NCC(=O)N[C@@H](CS)C(=O)O` [CSP-3] (H-CGGEIRALKYEIARLKQAKQAKIRALEQKIAALEGGC-OH; N-terminus and C-terminus assumed), in data set [1], the “TM of the oxidised state” value came to 50 °C and the “TM of the reduced, dimeric form” value came out at 40 °C.

`CC[C@H](C)[C@H](NC(=O)[C@H](CCCCN)NC(=O)[C@H](CCC(N)=O)NC(=O)[C@H](CCC(=O)O)NC(=O)[C@H](CC(C)C)NC(=O)[C@H](C)NC(=O)[C@H](CCCNC(=N)N)NC(=O)[C@@H](NC(=O)[C@H](CCCCN)NC(=O)[C@H](C)NC(=O)[C@H](CCC(N)=O)NC(=O)[C@H](C)NC(=O)[C@H](C)NC(=O)[C@H](CCC(N)=O)NC(=O)[C@H](CCCCN)NC(=O)[C@H](CC(C)C)NC(=O)[C@H](CCCNC(=N)N)NC(=O)[C@H](C)NC(=O)[C@@H](NC(=O)[C@H](CCC(=O)O)NC(=O)[C@H](Cc1ccc(O)cc1)NC(=O)[C@H](CCCCN)NC(=O)[C@H](CC(C)C)NC(=O)[C@H](C)NC(=O)[C@H](CCCNC(=N)N)NC(=O)[C@@H](NC(=O)[C@H](CCC(=O)O)NC(=O)CNC(=O)CNC(=O)[C@@H](N)CS)[C@@H](C)CC)[C@@H](C)CC)[C@@H](C)CC)C(=O)N[C@@H](C)C(=O)N[C@@H](C)C(=O)N[C@@H](CC(C)C)C(=O)N[C@@H](CCC(=O)O)C(=O)NCC(=O)NCC(=O)N[C@@H](CS)C(=O)O` [CSP-6] (H-CGGEIRALKYEIARLKQAAQAKIRALEQKIAALEGGC-OH; N-terminus and C-terminus assumed): in data set [1], the “TM of the oxidised state” value came out at 47 °C and the “TM of the reduced, dimeric form” value was determined as 75 °C.

For the molecule `CC[C@H](C)[C@H](NC(=O)[C@H](CCCCN)NC(=O)[C@H](CCC(N)=O)NC(=O)[C@H](CCC(=O)O)NC(=O)[C@H](CC(C)C)NC(=O)[C@H](C)NC(=O)[C@H](CCCNC(=N)N)NC(=O)[C@H](CCCCN)NC(=O)[C@H](CCCCN)NC(=O)[C@H](C)NC(=O)[C@H](CCC(N)=O)NC(=O)[C@H](C)NC(=O)[C@H](C)NC(=O)[C@H](CCC(N)=O)NC(=O)[C@H](CCCCN)NC(=O)[C@H](CC(C)C)NC(=O)[C@H](CCCNC(=N)N)NC(=O)[C@H](C)NC(=O)[C@@H](NC(=O)[C@H](CCC(=O)O)NC(=O)[C@H](Cc1ccc(O)cc1)NC(=O)[C@H](CCCCN)NC(=O)[C@H](CC(C)C)NC(=O)[C@H](C)NC(=O)[C@H](CCCNC(=N)N)NC(=O)[C@@H](NC(=O)[C@H](CCC(=O)O)NC(=O)CNC(=O)CNC(=O)[C@@H](N)CS)[C@@H](C)CC)[C@@H](C)CC)C(=O)N[C@@H](C)C(=O)N[C@@H](C)C(=O)N[C@@H](CC(C)C)C(=O)N[C@@H](CCC(=O)O)C(=O)NCC(=O)NCC(=O)N[C@@H](CS)C(=O)O` [CSP-7] (H-CGGEIRALKYEIARLKQAAQAKKRALEQKIAALEGGC-OH; N-terminus and C-terminus assumed), in data set [1], the “TM of the oxidised state” value is 53±2 °C and the “TM of the reduced, dimeric form” value was 34±2 °C.

For the molecule “CGGEIRALKYEIARLKQ----KKRALEQKIAALEGGC [CSP-1o] (disulfide I:1-II:16; not fully specified)”, the “helix content judged by CD spectroscopy” value in data set [2] is listed as 20%. In addition, in data set [1], the “thermal stability in words” value is “changed little upon heating”.

Turning to “CGGEIRALKYEIARLKQ----KKRALEQKIAALEGGC [CSP-1r] (not fully specified (some residues); cysteine pairing not given here)”, in data set [2], the “helix content judged by CD spectroscopy” value is 90%. Moreover, the “transition midpoint, TM” value in data set [1] (10 mM sample (so in the source)) was found to be 50 °C; in data set [1] (100 mM peptide (so in the source)), 62 °C.

As to “CGGEIRALKYEIARLKQAAQAKIRALEQKIAALEGGC [CSP-6r]”, in data set [2], the “helicity compared with other designs (CD signal at 222 nm)” value (“helicity compared with other designs” below) is “significantly increased over the other hendecad-containing designs CSP-2r and CSP-3r”. In data set [1] (10 μM peptide), the TM was determined as 61±2 °C. Moreover, the “thermal stability in words” value in data set [1] was “significantly increased over the other hendecad-containing designs CSP-2r and CSP-3r”.

On to “CGGEIRALKYEIARLKQAAQAKKRALEQKIAALEGGC [CSP-7o] (disulfide 1-37)”, for which the “thermal stability in words” value in data set [1] was “affected less”.

On to “CGGEIRALKYEIARLKQAAQAKKRALEQKIAALEGGC [CSP-7r]”, for which the “helicity compared with other designs” value in data set [2] is “compromised both the helicity and the thermal stability”. The “thermal stability in words” value in data set [1] is “compromised both the helicity and the thermal stability”.

For “CGGEIRALKYEIARLKQAKQAEIRALKQEIAALKGGC [CSP-4o] (disulfide 1-37)”, in data set [2], the “helicity compared with other designs” value was “marginally less helical than the parent, CSP-3o”. For the same molecule, the “thermal destabilisation compared with CSP-3o” value in data set [1] is approximately 20 °C.

For the molecule “CGGEIRALKYEIARLKQAKQAEIRALKQEIAALKGGC [CSP-4r]”, the “thermal stability higher than CSP-3r by” value in data set [1] (reduced forms) is approximately 8 °C.

Consider “CGGEIRALKYEIARLKQAKQAKIRALEQKIAALEGGC [CSP-3r]”, for which the “helicity compared with other designs” value in data set [2] was “approximate three-fold improvement in helicity over CSP-2r”. In addition, the “midpoint of thermal unfolding transition, TM” value in data set [1] turned out to be 40±2 °C.

Consider “CGGEIRALKYEIARLKQGGGGKKRALEQKIAALEGGC [CSP-2o] (disulfide 1-37)”, for which, in data set [2], the “helix content judged by CD spectroscopy” value is recorded as approximately 40% and the “helicity compared with other designs” value is “approximately double the helical signal ([θ]222) of the parent peptide”. Besides, the “midpoint of thermal unfolding transition, TM” value in data set [1] was found to be 40±2 °C.

Regarding “CGGEIRALKYEIARLKQGGGGKKRALEQKIAALEGGC [CSP-2r]”, in data set [2], the “helix content judged by CD spectroscopy” value is approximately 20%. Moreover, in data set [1], the “midpoint of thermal unfolding transition, TM” value turned out to be 22±2 °C.

As to “CGGKIRALEYKIARLEQAKQAKIRALEQKIAALEGGC [CSP-5o] (disulfide 1-37)”, the “helicity compared with other designs” value in data set [2] is reported as “marginally less helical than the parent, CSP-3o”. Moreover, in data set [1], the “thermal destabilisation compared with CSP-3o” value is approximately 20 °C.

For the molecule “CGGKIRALEYKIARLEQAKQAKIRALEQKIAALEGGC [CSP-5r]”, the “thermal stability lower than the parent (CSP-3r) by” value in data set [1] (reduced forms) came to 12 °C.

B1: CSP-6r (reduced and alkylated) (peptide)
peptide: C(Cam)GGEIRALKYEIARLKQAAQAKIRALEQKIAALEGGC(Cam)
notes: CSP-3 with the Lys at the h position replaced by Ala; also called design iteration 6, reduced & alkylated; CSP-7a (Maya's nomenclature)
Consider B1, for which the affinity in data set [3], expressed as Kd, was 34 µM. This lies in the double-digit micromolar range.

B2: CSP-3r (reduced and alkylated) (peptide)
peptide: C(Cam)GGEIRALKYEIARLKQAKQAKIRALEQKIAALEGGC(Cam)
notes: The entry is the monomer chain; the KD is for its monomer-dimer equilibrium; also called CSP-3a; design iteration 3, reduced & alkylated
Take B2: the Kd in data set [3] turned out to be 191 µM.

B3: CSP-4r (reduced and alkylated) (peptide)
peptide: C(Cam)GGEIRALKYEIARLKQAKQAEIRALKQEIAALKGGC(Cam)
notes: Anagram mutant of CSP-3 with all g:e pairs Glu:Lys; also called design iteration 4, reduced & alkylated; CSP-5a (Maya's nomenclature)
Molecule B3 yielded a Kd in data set [3] of 77 µM.

B4: CSP-7r (reduced and alkylated) (peptide)
peptide: C(Cam)GGEIRALKYEIARLKQAAQAKKRALEQKIAALEGGC(Cam)
notes: CSP-6 with the Ile at the a site after the hendecad unit replaced by Lys; also called design iteration 7, reduced & alkylated; CSP-8a (Maya's nomenclature)
B4: the Kd in data set [3] stood at 506 µM.

B5: CSP-5r (reduced and alkylated) (peptide)
peptide: C(Cam)GGKIRALEYKIARLEQAKQAKIRALEQKIAALEGGC(Cam)
notes: Anagram mutant of CSP-3 with all g:e pairs Lys:Glu; also called design iteration 5, reduced & alkylated; CSP-6a (Maya's nomenclature)
For the molecule B5, in data set [3], the affinity, expressed as Kd, was 72 µM.

B6: CSP-1r (Coiled-coil-Switch Peptide-1, reduced and alkylated) (peptide)
peptide: C(Cam)GGEIRALKYEIARLKQKKRALEQKIAALEGGC(Cam)
notes: Synthetic designed peptide; The entry is the monomer chain; the KD is for its monomer-dimer equilibrium (parallel coiled-coil homodimer); also called design iteration 1, reduced & alkylated; CSP-2a (Maya's nomenclature)
B6 registered an equilibrium dissociation constant (Kd) in data set [3] of 33 µM. Compared with the last molecule, the Kd is about 2.2-fold lower.

(Values after patent publication US20060240474A1, “Peptides able to switch between two structural states and their use” (UNIVERSITY OF SUSSEX, priority 2002, published 2006).)
